Substitutions are numbered along the chain they refer to. Names and notes keep the numbering of the source. Ends that are not written are not given here. * marks the point of attachment. FITC = O=C1OC2(c3ccc(O)cc3Oc3cc(O)ccc32)c2ccc(NC(=S)*)cc21
T1: Pex5p wildtype, recombinant His6-tagged (HisPex5p) (S. cerevisiae, UniProt P35056 1-612)
T1 construct: Pex5p, PTS1 receptor of Saccharomyces cerevisiae, UniProtKB P35056, full length; No cleavage of the His tag is described; the native MS mass of the monomer is printed as 71.459 kDa; also called Pex5p^WT; source: E. coli BL21 RIL (DE3), purified (Ni-NTA, MonoQ anion exchange, SEC)
T1 sequence (looked up): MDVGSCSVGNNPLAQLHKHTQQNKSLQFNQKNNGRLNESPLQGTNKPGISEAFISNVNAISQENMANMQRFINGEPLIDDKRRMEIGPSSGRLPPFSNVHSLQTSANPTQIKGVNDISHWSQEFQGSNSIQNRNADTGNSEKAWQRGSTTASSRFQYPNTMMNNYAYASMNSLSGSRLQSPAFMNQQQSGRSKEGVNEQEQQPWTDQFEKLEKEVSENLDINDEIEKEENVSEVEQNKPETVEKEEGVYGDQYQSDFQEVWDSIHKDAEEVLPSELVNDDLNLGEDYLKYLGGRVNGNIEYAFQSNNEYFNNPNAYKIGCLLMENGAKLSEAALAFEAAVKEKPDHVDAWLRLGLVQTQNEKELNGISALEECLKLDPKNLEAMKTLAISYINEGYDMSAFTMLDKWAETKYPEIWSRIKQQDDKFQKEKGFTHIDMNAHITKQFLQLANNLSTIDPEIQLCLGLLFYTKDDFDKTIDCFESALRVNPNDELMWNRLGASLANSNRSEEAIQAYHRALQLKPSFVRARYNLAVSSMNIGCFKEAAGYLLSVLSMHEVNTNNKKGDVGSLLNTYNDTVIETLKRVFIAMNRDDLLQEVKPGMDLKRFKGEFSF

B1: Idp3p (protein, UniProt P53982 1-420, looked up)
Isocitrate dehydrogenase …: MSKIKVVHPIVEMDGDEQTRVIWKLIKEKLILPYLDVDLKYYDLSIQERDRTNDQVTKDSSYATLKYGVAVKCATITPDEARMKEFNLKEMWKSPNGTIRNILGGTVFREPIIIPKIPRLVPHWEKPIIIGRHAFGDQYRATDIKIKKAGKLRLQFSSDDGKENIDLKVYEFPKSGGIAMAMFNTNDSIKGFAKASFELALKRKLPLFFTTKNTILKNYDNQFKQIFDNLFDKEYKEKFQALKITYEHRLIDDMVAQMLKSKGGFIIAMKNYDGDVQSDIVAQGFGSLGLMTSILITPDGKTFESEAAHGTVTRHFRKHQRGEETSTNSIASIFAWTRAIIQRGKLDNTDDVIKFGNLLEKATLDTVQVGGKMTKDLALMLGKTNRSSYVTTEEFIDEVAKRLQNMMLSSNEDKKGMCKL
B2: Pcs60p nonapeptide, FITC-YKSSRNKSKL (peptide)
peptide: {FITC}-YKSSRNKSKL
notes: tyrosine added to the peptide amino-terminus for concentration measurements; the nine carboxy-terminal residues of Pcs60p, S. cerevisiae; An extra N-terminal tyrosine stands before the natural stretch; also called Pcs60p peptide; source: synthetic peptide (GenScript)
B3: Str3p: peroxisomal cystathionine beta-lyase (protein, UniProt P53101 1-465, looked up)
Cystathionine beta-lyase: MPIKRLDTVVVNTGSQNDQHSASVPPVYLSTTFKVDLNNEDAQNYDYSRSGNPTRSVLQHQIGKLYRVPQENVLAVSSGMTALDVILRGLVLLNGTDNHTPTIIAGDDLYGGTQRLLNFFKQQSHAVSVHVDTSDFEKFKTVFQSLDKVDCVLLESPTNPLCKVVDIPRILRFVKCISPDTTVVVDNTMMSGLNCNPLQLNPGCDVVYESATKYLNGHHDLMGGVIISKTPEIASKLYFVINSTGAGLSPMDSWLLVRGLKTLGVRLYQQQRNAMILAHWLENSCGFKPTRTNKATKTRFVGLRSNPDFKLHKSFNNGPGAVLSFETGSFEHSKRLVSSKKLSIWAVTVSFGCVNSLLSMPCKMSHASIDPELRKERDFPEDLVRLCCGIENIVDLKKDLLAAMVDADIIEVRENGKYLFNKLNKNLAVNTTIDDLHKPLSIYEEFYNQDLIRKDSELNIKSSKL
B4: Pex5p^S507D (protein, UniProt P35056 1-612, looked up, variant S507D)
Peroxisomal targeting signal …: T1 sequence (looked up) with S507D
B5: Pex5p^S523D (protein, UniProt P35056 1-612, looked up, variant S523D)
Peroxisomal targeting signal …: T1 sequence (looked up) with S523D
B6: Mls1p (protein, UniProt P30952 1-554, looked up)
Malate synthase 1: MVKVSLDNVKLLVDVDKEPFFKPSSTTVGDILTKDALEFIVLLHRTFNNKRKQLLENRQVVQKKLDSGSYHLDFLPETANIRNDPTWQGPILAPGLINRSTEITGPPLRNMLINALNAPVNTYMTDFEDSASPTWNNMVYGQVNLYDAIRNQIDFDTPRKSYKLNGNVANLPTIIVRPRGWHMVEKHLYVDDEPISASIFDFGLYFYHNAKELIKLGKGPYFYLPKMEHHLEAKLWNDVFCVAQDYIGIPRGTIRATVLIETLPAAFQMEEIIYQLRQHSSGLNCGRWDYIFSTIKRLRNDPNHILPNRNQVTMTSPFMDAYVKRLINTCHRRGVHAMGGMAAQIPIKDDPAANEKAMTKVRNDKIRELTNGHDGSWVAHPALAPICNEVFINMGTPNQIYFIPENVVTAANLLETKIPNGEITTEGIVQNLDIGLQYMEAWLRGSGCVPINNLMEDAATAEVSRCQLYQWVKHGVTLKDTGEKVTPELTEKILKEQVERLSKASPLGDKNKFALAAKYFLPEIRGEKFSEFLTTLLYDEIVSTKATPTDLSKL
B7: Pnc1p: nicotinamidase, imported by piggy-backing on Gpd1p (protein, UniProt P53184 1-216, looked up)
Nicotinamidase: MKTLIVVDMQNDFISPLGSLTVPKGEELINPISDLMQDADRDWHRIVVTRDWHPSRHISFAKNHKDKEPYSTYTYHSPRPGDDSTQEGILWPVHCVKNTWGSQLVDQIMDQVVTKHIKIVDKGFLTDREYYSAFHDIWNFHKTDMNKYLEKHHTDEVYIVGVALEYCVKATAISAAELGYKTTVLLDYTRPISDDPEVINKVKEELKAHNINVVDK

What was measured:
Pex5p^2D cells = assay: Fluorescence microscopy, peroxisomal import of GFP-tagged proteins in Pex5p^2D-expressing cells; assay type: cell-based, S. cerevisiae; design: key to import phenotype category: showed a reduced peroxisomal import and constitute category 1; category 2 characterized by no peroxisomal import; without a noticeable effect on import in Pex5p^2D cells (category 3); settings: GFP-tagged protein, Pex3p-mCherry marker, SD medium, 2% glucose; for import phenotype category: Pex5p^2D-expressing cells, assessed manually
Text: Query strains were constructed on the basis of an automated mating compatible strain. The query strains contained a peroxisomal marker (Pex3p-mCherry::HIS), a deletion of PEX5 (pex5Δ::NAT) and a plasmid expressing WT or mutant PEX5 (PEX5^WT, PEX5^2D or PEX5^2A). Using an automated mating method ([Cohen and Schuldiner 2011]; [Tong and Boone 2006]), the query strains were crossed with a NOP1pr-N′-GFP-peroxi library ([Dahan et al. 2017]). The NOP1pr-N′-GFP-peroxisomal library is a collection of ∼90 strains containing all the known peroxisomal proteins together with potential peroxisomal proteins and controls, genomically tagged with GFP at their N-terminus and expressed under the generic constitutive SpNOP1 promoter. To perform the manipulations in high-density format we used a RoToR bench top colony arrayer (Singer Instruments). In short: mating was performed on rich medium plates, and selection for diploid cells was performed on SD(MSG)-HIS-URA plates containing Geneticin (200 μg ml^−1) and Nourseothricin (200 μg ml^−1). Sporulation was induced by transferring cells to nitrogen starvation media plates for 7 days. Haploid cells containing the desired mutations were selected by transferring cells to SD-URA-HIS-LYS-ARG-LEU plates containing Geneticin and Nourseothricin (same concentrations as above), alongside the toxic amino acid derivatives Canavanine and Thialysine (Sigma-Aldrich) to select against remaining diploids and select for spores with an α mating type. A similar method was used to generate control, pex5Δ, and pex8Δ strains expressing GFP-Mdh3p (Supplementary Figure 4D), in which the query strain contained a peroxisomal marker (Pex3p-mCherry::NAT) and URA3::GFP-Mdh3p. This query strain was crossed with three strains from the mini peroxisomal deletion library ([Gabay-Maskit et al. 2020]): a control (no deletion), pex5Δ, and pex8Δ strain, all of which contain KAN (Geneticin) resistance.
The yeast collections were visualized using an automated microscopy setup as described previously ([Breker et al. 2013]). In short: cells were transferred from agar plates into 384-well polystyrene plates (Greiner) for growth in liquid media using the RoToR arrayer robot. Liquid cultures were grown in a LiCONiC incubator, overnight at 30 °C in SD-URA-HIS medium. A JANUS liquid handler (PerkinElmer) connected to the incubator was used to dilute the strains to an OD600 of ∼0.2 into plates containing SD medium (6.7 g l^−1 yeast nitrogen base and 2% glucose) supplemented with complete amino acids. Plates were incubated at 30 °C for 4 h. The cultures in the plates were then transferred by the liquid handler into glass-bottom 384-well microscope plates (Matrical Bioscience) coated with Concanavalin A (Sigma-Aldrich). After 20 min, cells were washed three times with SD-Riboflavin complete medium to remove non-adherent cells and to obtain a cell monolayer. The plates were then transferred to the ScanR automated inverted fluorescent microscope system (Olympus) using a robotic swap arm (Hamilton). Images of cells in the 384-well plates were recorded in the same liquid as the washing step at 24 °C using a 60× air lens (NA 0.9) and with an ORCA-ER charge-coupled device camera (Hamamatsu). Images were acquired in two channels: GFP (excitation filter 490/20 nm, emission filter 535/50 nm) and mCherry (excitation filter 572/35 nm, emission filter 632/60 nm). All images were taken at a single focal plane. The same protocol was used to visualize fluorescence signals in GFP-Mdh3p-expressing control, pex5Δ, and pex8Δ strains (Supplementary Figure 4D).

[1] = target: T1, Pex5p wildtype, recombinant His6-tagged …; assay: fluorescence polarisation; fluorescence anisotropy; 10 nM FITC-labelled peptide, serial dilutions of Pex5p variant 1.5 nM to 6.6 µM; 50 mM HEPES pH 7.5, 150 mM NaCl; one-site binding-saturation fit; settings: both partners purified
[2] = test system: GFP-SKL import in pex5Δ yeast cells; assay: Fluorescence microscopy, import of GFP-SKL in cells expressing Pex5p variants; assay type: cell-based, S. cerevisiae; settings: pex5Δ cells expressing plasmid-encoded Pex5p variant and GFP-SKL; grown in oleate
Procedure: Cells expressing distinct Pex5p variants (wildtype, Pex5p^2A or Pex5p^2D) and GFP-SKL were grown overnight in 50 ml YNO medium supplemented with 0.1% (w/v) glucose to an OD600 of 1–1.5. Aliquots of 5.4 ml were taken and formaldehyde was added to a final concentration of 3.7% (v/v). Samples were incubated for 10 min at RT with slight agitation. Cells were collected by centrifugation (5 min at 2000 g), resuspended in 1 ml of 0.1 M potassium phosphate buffer (pH 6.8) containing 3.7% (v/v) formaldehyde and incubated for 1 h at RT with slight agitation. Following centrifugation (30 s at 16,000 g), cells were resuspended in 1 ml of 0.1 M potassium phosphate buffer (pH 6.8) containing 10 mM ethanolamine and incubated for further 10 min at RT. Subsequently, cells were washed twice with phosphate-buffered saline (PBS) and resuspended in 10–20 µl of PBS containing 0.1% (v/v) Triton X-100. Fixed cells were analyzed within 48 h after preparation.
Fluorescence microscopy was performed using a Zeiss Axio Observer.Z1 microscope equipped with an alpha Plan-Aprochromat 100× objective and an AxioCam MR R3. GFP signal was visualized with a 38 HE filterset from Zeiss. Images were processed using Adobe Photoshop CS5 (version 12.0.4 ×64; Adobe Systems Incorporated). To document the structural integrity of cells, bright field images were acquired, adjusted in a way that only the cell boundaries were visible and subsequently added into the blue channel in Photoshop as reported before ([Motley and Hettema 2007]).

| Molecule | import phenotype category (Pex5p^2D cells) | other results |
| --- | --- | --- |
| Pex8p: essential component of the import machinery for peroxisomal matrix proteins | category 1 |  |
| B1 | category 2 |  |
| B2 |  | Kd [1]: 643 nM |
| B3 | category 3 |  |
| B4 |  | subcellular distribution of GFP-SKL [2]: wildtype-like distribution of GFP-SKL |
| B5 |  | subcellular distribution of GFP-SKL [2]: wildtype-like distribution of GFP-SKL |
| B6 | category 2 |  |
| B7 |  | subcellular distribution / peroxisomal import (Pex5p^2D cells; Pex5p^2D cells): no differences in localization |

Source: PMC9929924, “Phosphorylation of the receptor protein Pex5p modulates import of proteins into peroxisomes” (Biological Chemistry, 2022)
